The series can be described thus: total protein half-life in vivo (active degradation + dilution); higher = more stable protein.
The mark [1] stands for this setting: E. coli NCM3722 delta-clpP, growth: N-lim chemostat, doubling time 6 h.
[2] abbreviates: E. coli NCM3722 delta-hslV, growth: N-lim chemostat, doubling time 6 h.
The mark [3] stands for this setting: E. coli NCM3722 delta-lon, growth: N-lim chemostat, doubling time 6 h.
Where [4] appears, read: E. coli NCM3722 delta-smpB, growth: N-lim chemostat, doubling time 6 h.
[5] abbreviates: wild type E. coli NCM3722, growth: C-lim chemostat, doubling time 3 h.
[6] abbreviates: wild type E. coli NCM3722, growth: C-lim chemostat, doubling time 6 h.
[7] abbreviates: wild type E. coli NCM3722, growth: C-lim chemostat, doubling time 12 h.
Setting [8] is: wild type E. coli NCM3722, growth: N-lim chemostat, doubling time 6 h.
Setting [9] is: wild type E. coli NCM3722, growth: N-lim chemostat, doubling time 12 h.
[10] abbreviates: wild type E. coli NCM3722, growth: P-lim chemostat, doubling time 6 h.
Where [11] appears, read: wild type E. coli NCM3722, growth: P-lim chemostat, doubling time 12 h.
Setting [12] is: E. coli NCM3722 delta-clpP delta-lon delta-hslV, growth: N-lim chemostat, doubling time 6 h.

± gives the standard deviation of the averaged measurements.

On to “MKAIDNQIRNISSSHQDKHSDKVNSHQHHGKVDKTHRAKIVEFDKLDNDSQIDNDFGLHIIYFLQHGHWKVNDRSHQMEKVWFYNSEPSIDIQEYNRFADNTTDTFIFTIIPDNNHVLKLSSPITVTVECKGGYYFINSSGDKSDIIYKVDGLSIIARNFFTLLSGNFKPDWRWDVSKETFTKEKFDSYVKSVFSKIDFYKQCGVINPQNANTAYFGDTDGRVGAVLYALLVSGHIGIREKGWSLLCELLKHEEMASSAYKHKNNKVLYDLLNTRDMILNELHQHVFLKDDAITPCIFLGDHTGDRFSTIFGDKYILTLLNSMRNMEGNKDSRINKNVVVLAGNHEINFNGNYTARLANHKLSAGDTYNLIKTLDVCNYDSERQVLTSHHGIIRDEEKKCYCLGALQVPFNQMKNPTDPEELANIFNKKHKEHMDDPLFHLIRSNTLKPTPVYANYFDNTTDFRPARERIFICGETLKGEDPSKYIRQKYGHHGPGVDHNQQFDNGIMGLNSLKEARDKNNKIIYSSGLSCFQLH”, for which the “total protein half-life in vivo” value is, setting by setting: under setting [1], 2.18 ± 0.21 h; under setting [2], 2.35 ± 0.097 h; under setting [3], 2.82 h; under setting [4], 2.53 h; under setting [5], 2.6 ± 0.029 h; under setting [6], 4.34 ± 0.27 h. The “total protein half-life in vivo” value was 6 h under setting [7]; 2.27 ± 0.28 h under setting [8]; 3.75 h under setting [9]; 5.32 ± 0.097 h under setting [10]; 8.76 ± 0.24 h under setting [11].
“MYDFVIIGGGIIGMSTAMQLIDVYPDARIALLEKESAPACHQTGHNSGVIHAGVYYTPGSLKAQFCLAGNRATKAFCDQNGIRYDNCGKMLVATSDLEMERMRALWERTAANGIEREWLNADELREREPNITGLGGIFVPSSGIVSYRDVTAAMAKIFQSRGGEIIYNAEVSGLNEHKNGVVIRTRQGGEYEASTLISCSGLMADRLVKMLGLEPGFIICPFRGEYFRLAPEHNQIVNHLIYPIPDPAMPFLGVHLTRMIDGSVTVGPNAVLAFKREGYRKRDFSFSDTLEILGSSGIRRVLQNHLRSGLGEMKNSLCKSGYLRLVQKYCPRLSLSDLQPWPAGVRAQAVSPDGKLIDDFLFVTTPRTIHTCNAPSPAATSAIPIGAHIVSKVQTLLASQSNPGRTLRAARSVDALHAAFNQ”: the “total protein half-life in vivo” value under setting [12] was 5.44 ± 0.2 h; the “total protein half-life in vivo” value under setting [1] is 6.32 ± 1.6 h; the “total protein half-life in vivo” value under setting [2] was 5.3 ± 0.37 h; the “total protein half-life in vivo” value under setting [3] worked out at 4.94 ± 0.065 h; the “total protein half-life in vivo” value under setting [4] was found to be 4.58 ± 0.47 h; the “total protein half-life in vivo” value under setting [5] came out at 2.7 ± 0.3 h. The “total protein half-life in vivo” value came out at 5.48 ± 0.23 h under setting [6]; 9.35 ± 0.39 h under setting [7]; 5.4 ± 0.44 h under setting [8]; 9.37 ± 0.29 h under setting [9]; 4.51 ± 0.93 h under setting [10]; 10.8 ± 0.21 h under setting [11].
Regarding “MISSLWIAKTGLDAQQTNMDVIANNLANVSTNGFKRQRAVFEDLLYQTIRQPGAQSSEQTTLPSGLQIGTGVRPVATERLHSQGNLSQTNNSKDVAIKGQGFFQVMLPDGSSAYTRDGSFQVDQNGQLVTAGGFQVQPAITIPANALSITIGRDGVVSVTQQGQAAPVQVGQLNLTTFMNDTGLESIGENLYTETQSSGAPNESTPGLNGAGLLYQGYVETSNVNVAEELVNMIQVQRAYEINSKAVSTTDQMLQKLTQL [P0ABX5]”, the “total protein half-life in vivo” value is 4.91 ± 2.6 h under setting [12]; over 8 h under setting [1]; 1.53 ± 0.27 h under setting [5]; 5.1 ± 3.6 h under setting [6]; 6.45 ± 1.9 h under setting [7].
Turning to “MNLQHHFLIAMPALQDPIFRRSVVYICEHNTNGAMGIIVNKPLENLKIEGILEKLKITPEPRDESIRLDKPVMLGGPLAEDRGFILHTPPSNFASSIRISDNTVMTTSRDVLETLGTDKQPSDVLVALGYASWEKGQLEQEILDNAWLTAPADLNILFKTPIADRWREAAKLIGVDILTMPGVAGHA [P0A8W5]”, the “total protein half-life in vivo” value was 4.47 ± 0.45 h under setting [12]; 5.88 ± 1.8 h under setting [1]; 4.32 ± 0.34 h under setting [2]; 2.88 ± 0.18 h under setting [3]; 4.027 ± 0.034 h under setting [4]; 2.93 ± 0.32 h under setting [5]. Further, the “total protein half-life in vivo” value was 5.38 ± 0.81 h under setting [6]; 8.21 ± 0.33 h under setting [7]; 4.39 ± 0.34 h under setting [8]; 6.81 ± 0.54 h under setting [9]; 5.075 ± 0.018 h under setting [10]; 10.2 ± 2.2 h under setting [11].
“MNQIFMVIFLVLSGFIVGNVWSDRGWQKKWAERDAAALSQEVNAQFAARIIEQGRTIARDEAVKDAQQKSAEISARAAYLSDSVNQLRAEAKKYAIRLDAAKHTADLAAAVRGKTTKTAEGMLTNMLGDIAAEAQLYAEIADERYIAGVTCQQIYESLRDKKHQM”: the “total protein half-life in vivo” value under setting [11] came out at 9.42 h.
For the sequence “MDYVCSVVFICQSFDLIINRRVISFKKNSLFIVSDKIRRELPVCPSKLRIVDIDKKTCLSFFIDVNNELPGKFTLDKNGYIAEEEPPLSLVFSLFEGIKIADSHSLWLKERLCISLLAMFKKRESVNSFILTNINTFTCKITGIISFNIERQWHLKDIAELIYTSESLIKKRLRDEGTSFTEILRDTRMRYAKKLITSNSYSINVVAQKCGYNSTSYFICAFKDYYGVTPSHYFEKIIGVTDGINKTID”, the “total protein half-life in vivo” value is 5.39 ± 1.1 h under setting [12]; 3.62 ± 0.73 h under setting [1]; 3.65 ± 0.5 h under setting [2]; 3.18 ± 0.42 h under setting [4]; 2.27 ± 0.2 h under setting [5]; 4.11 ± 0.32 h under setting [6]. The “total protein half-life in vivo” value under setting [7] was 6.14 h; the “total protein half-life in vivo” value under setting [8] worked out at 2.95 h; the “total protein half-life in vivo” value under setting [9] was determined as 5.67 ± 0.64 h; the “total protein half-life in vivo” value under setting [10] turned out to be 3.89 ± 0.38 h; the “total protein half-life in vivo” value under setting [11] stood at 7.61 ± 2.4 h.
Consider “MFTKRHRITLLFNANKAYDRQVVEGVGEYLQASQSEWDIFIEEDFRARIDKIKDWLGDGVIADFDDKQIEQALADVDVPIVGVGGSYHLAESYPPVHYIATDNYALVESAFLHLKEKGVNRFAFYGLPESSGKRWATEREYAFRQLVAEEKYRGVVYQGLETAPENWQHAQNRLADWLQTLPPQTGIIAVTDARARHILQVCEHLHIPVPEKLCVIGIDNEELTRYLSRVALSSVAQGARQMGYQAAKLLHRLLDKEEMPLQRILVPPVRVIERRSTDYRSLTDPAVIQAMHYIRNHACKGIKVDQVLDAVGISRSNLEKRFKEEVGETIHAMIHAEKLEKARSLLISTTLSINEISQMCGYPSLQYFYSVFKKAYDTTPKEYRDVNSEVML [P0ACI3]”, for which the “total protein half-life in vivo” value under setting [12] amounted to 5.66 ± 0.54 h; the “total protein half-life in vivo” value under setting [1] was 5.86 ± 0.86 h; the “total protein half-life in vivo” value under setting [3] was 3.81 ± 0.22 h; the “total protein half-life in vivo” value under setting [4] turned out to be 3.05 ± 0.42 h; the “total protein half-life in vivo” value under setting [5] is 2.89 ± 0.14 h; the “total protein half-life in vivo” value under setting [6] amounted to 5.27 ± 0.069 h. Also, the “total protein half-life in vivo” value by setting is: under setting [7], 9.26 ± 0.14 h; under setting [8], 3.78 ± 0.56 h; under setting [9], 4.44 ± 1.1 h; under setting [10], 5.4 ± 0.33 h; under setting [11], 9.78 ± 0.94 h.
